The values that follow come from the RNAGym collection of RNA variant scans (doi:10.7554/elife.80360).

B1: Hairpin Ribozyme (parent)
chain: GUCCUCUUUCACGUGCGCGUGAAAGAGAGAAGUGAACCAGAGAAACACACGUUGUGGUAUAUUACCUGGUA

The variants in the data set derive from B1. Kind of data set: self-cleavage, relative activity (ratio to wild type); higher = more cleavage; co-transcriptional.
GUCCUCUUUCACGUGCGCGUGAAAGAGAGAAAUGAAGCAGAGAAACACACGUUGUGGUAUAUUACCUGGUA: the self-cleavage stood at 0.0907.
Take GUCCUCUUUCACGUGCGCGUGAAAGAGAGAAAUGAACCAUAGAAACACACGUUGUGGUAUAUUACCUGGUA: the self-cleavage was 0.0775.
For GUCCUCUUUCACGUGCGCGUGAAAGAGAGAAAUGAACCAAAGAAACACACGUUGUGGUAUAUUACCUGGUA, the self-cleavage stood at 0.136.
GUCCUCUUUCACGUGCGCGUGAAAGAGAGAAAUGAACCAGAGAAACACACGUUGUGGUAUAUUUCCUGGUA: the self-cleavage was found to be 0.204.
In the case of GUCCUCUUUCACGUGCGCGUGAAAGAGAGAAAUGAACCAGAGAAACGCACGUUGUGGUAUAUUACCUGGUA, the self-cleavage worked out at 0.133.
As to GUCCUCUUUCACGUGCGCGUGAAAGAGAGAAAUGAACCAGAGAAACUCACGUUGUGGUAUAUUACCUGGUA, the self-cleavage amounted to 0.125.
With GUCCUCUUUCACGUGCGCGUGAAAGAGAGAAAUGAACCAGAGAAACACAUGUUGUGGUAUAUUACCUGGUA the figure was 0.101; with GUCCUCUUUCACGUGCGCGUGAAAGAGAGAAAUGAACCAGAGAAACACACGUUGUGGUAUAUUACAUGGUA, 0.147.
Under GUCCUCUUUCACGUGCGCGUGAAAGAGAGAAAUGAACCAGAGAAACACACGUUGUGGUAUAUUACGUGGUA stands 0.144; under GUCCUCUUUCACGUGCGCGUGAAAGAGAGAAAUGAACCAGAGAAACAUACGUUGUGGUAUAUUACCUGGUA, 0.154; under GUCCUCUUUCACGUGCGCGUGAAAGAGAGAAAUGAACCAGAUAAACACACGUUGUGGUAUAUUACCUGGUA, 0.186.
With GUCCUCUUUCACGUGCGCGUGAAAGAGAGAAAUGAACCAGAGAAGCACACGUUGUGGUAUAUUACCUGGUA the figure was 0.117; with GUCCUCUUUCACGUGCGCGUGAAAGAGAGAUGUGAACCAGAGAAACACACGUUGUGGUAUAUUACCCGGUA, 0.0741.
Turning to GUCCUCUUUCACGUGCGCGUGAAAGAGAGAAAUGAACCAGAGAAACACACGUUGUGGUAUAUUACCUGGUG, the self-cleavage came to 0.183.
With GUCCUCUUUCACGUGCGCGUGAAAGAGAGAUGUCAACCAGAGAAACACACGUUGUGGUAUAUUACCUGGUA the figure was 0.
Under GUCCUCUUUCACGUGCGCGUGAAAGAGAGAUGAGAACCAGAGAAACACACGUUGUGGUAUAUUACCUGGUA stands 0.0513; under GUCCUCUUUCACGUGCGCGUGAAAGAGAGAUGUGAACCAGAGAAACACUCGUUGUGGUAUAUUACCUGGUA, 0.137.
GUCCUCUUUCACGUGCGCGUGAAAGAGAGAAAUGAACCAGAGAAACACACGUUGUGGUAUAUUACCUGGUA: the self-cleavage was 0.153.
Consider GUCCUCUUUCACGUGCGCGUGAAAGAGAGAUGUGAACCAGAGAAACACACGUUGUCGUAUAUUACCUGGUA, for which the self-cleavage is 0.137.
As to GUCCUCUUUCACGUGCGCGUGAAAGAGAGAUGUGAACCAGAGGAACACACGUUGUGGUAUAUUACCUGGUA, the self-cleavage was determined as 0.134.
With GUCCUCUUUCACGUGCGCGUGAAAGAGAGAAAAGAACCAGAGAAACACACGUUGUGGUAUAUUACCUGGUA the figure was 0.139; with GUCCUCUUUCACGUGCGCGUGAAAGAGAGAAAUGAACCAGAGAAACACACGUUGUGUUAUAUUACCUGGUA, 0.118.
With GUCCUCUUUCACGUGCGCGUGAAAGAGAGAUGUGAACCAGAGAAACACACGUUGUGGUAUAUUUCCUGGUA the figure was 0.134.
As for GUCCUCUUUCACGUGCGCGUGAAAGAGAGAUGUGAACCAGAGAACCACACGUUGUGGUAUAUUACCUGGUA, the self-cleavage came to 0.191.
With GUCCUCUUUCACGUGCGCGUGAAAGAGAGAAAUGAACCAGAGAAACACACGUUGUGGUAUAUUACCUUGUA the figure was 0.0821; with GUCCUCUUUCACGUGCGCGUGAAAGAGAGAAAUGAACCAGAGAAACACACGUUGUGGUAUAUUACCUCGUA, 0.1.
Under GUCCUCUUUCACGUGCGCGUGAAAGAGAGAAAUGAACCAGAGAAACACACGUUGUGGUAUAUUACCUAGUA stands 0.193; under GUCCUCUUUCACGUGCGCGUGAAAGAGAGAAAUUAACCAGAGAAACACACGUUGUGGUAUAUUACCUGGUA, 0.798; under GUCCUCUUUCACGUGCGCGUGAAAGAGAGAUGUGAACCAGAGAAACACAUGUUGUGGUAUAUUACCUGGUA, 0.24.
In the case of GUCCUCUUUCACGUGCGCGUGAAAGAGAGAUGUGAACCAGAGAAACACAAGUUGUGGUAUAUUACCUGGUA, the self-cleavage stood at 0.113.
For GUCCUCUUUCACGUGCGCGUGAAAGAGAGAUGUGAACCAGAGAAACACAGGUUGUGGUAUAUUACCUGGUA, the self-cleavage amounted to 0.152.
As for GUCCUCUUUCACGUGCGCGUGAAAGAGAGAUGUGAACCAGAGAAACACACGUUGUGGUGUAUUACCUGGUA, the self-cleavage is 0.0459.
With GUCCUCUUUCACGUGCGCGUGAAAGAGAGAUGUGAACCAGAGAAACACACGUUGUGGUAUCUUACCUGGUA, the self-cleavage was 0.111.
With GUCCUCUUUCACGUGCGCGUGAAAGAGAGAUGUGAACCAGAGAAACACACGUUGUGGUAUUUUACCUGGUA the figure was 0.138; with GUCCUCUUUCACGUGCGCGUGAAAGAGAGAUGUGAACCAGAGAAACACACGUUGUGGUAUAUUACGUGGUA, 0.0934.
Under GUCCUCUUUCACGUGCGCGUGAAAGAGAGAAAUGAACCAGAGAAACACGCGUUGUGGUAUAUUACCUGGUA stands 0.366; under GUCCUCUUUCACGUGCGCGUGAAAGAGAGAUGUGAACAAGAGAAACACACGUUGUGGUAUAUUACCUGGUA, 0.0669.
Consider GUCCUCUUUCACGUGCGCGUGAAAGAGAGAUGUGAACCAGAGACACACACGUUGUGGUAUAUUACCUGGUA, for which the self-cleavage was found to be 0.101.
GUCCUCUUUCACGUGCGCGUGAAAGAGAGAUGUGAACCAGAGAUACACACGUUGUGGUAUAUUACCUGGUA: the self-cleavage came out at 0.286.
With GUCCUCUUUCACGUGCGCGUGAAAGAGAGAAAUGUACCAGAGAAACACACGUUGUGGUAUAUUACCUGGUA the figure was 0.153; with GUCCUCUUUCACGUGCGCGUGAAAGAGAGAAAUGGACCAGAGAAACACACGUUGUGGUAUAUUACCUGGUA, 0.142; with GUCCUCUUUCACGUGCGCGUGAAAGAGAGAAAUGAACCAGAGAAACACACGUUGCGGUAUAUUACCUGGUA, 0.161.
GUCCUCUUUCACGUGCGCGUGAAAGAGAGAAAUGAACCAGAGAAACACACGUUGGGGUAUAUUACCUGGUA: the self-cleavage worked out at 0.15.
With GUCCUCUUUCACGUGCGCGUGAAAGAGAGAUGUGAACCAGAGAAACUCACGUUGUGGUAUAUUACCUGGUA the figure was 0.141.
With GUCCUCUUUCACGUGCGCGUGAAAGAGAGAAAUGAACCAGAGAAACACACGAUGUGGUAUAUUACCUGGUA, the self-cleavage came to 0.24.
Turning to GUCCUCUUUCACGUGCGCGUGAAAGAGAGAAAUGAACCAGAGAAACACACGGUGUGGUAUAUUACCUGGUA, the self-cleavage turned out to be 0.141.
With GUCCUCUUUCACGUGCGCGUGAAAGAGAGAAAUGAACCAGAGAAACACACGUUGUGGUAUAUUAUCUGGUA, the self-cleavage came to 0.174.
On to GUCCUCUUUCACGUGCGCGUGAAAGAGAGAAAUGAACUAGAGAAACACACGUUGUGGUAUAUUACCUGGUA, for which the self-cleavage stood at 0.0584.
With GUCCUCUUUCACGUGCGCGUGAAAGAGAGAUGUGAACCAGUGAAACACACGUUGUGGUAUAUUACCUGGUA the figure was 0; with GUCCUCUUUCACGUGCGCGUGAAAGAGAGAUGUGAAUCAGAGAAACACACGUUGUGGUAUAUUACCUGGUA, 0.187; with GUCCUCUUUCACGUGCGCGUGAAAGAGAGAAAUGAACCAGAGAAACACACGUUCUGGUAUAUUACCUGGUA, 0.117.
As to GUCCUCUUUCACGUGCGCGUGAAAGAGAGAUGUGAACCAGAGAAACACACGUUGUGGUAGAUUACCUGGUA, the self-cleavage was found to be 0.115.
On to GUCCUCUUUCACGUGCGCGUGAAAGAGAGAAAUGAACCAGAGAAACACACGUUGUUGUAUAUUACCUGGUA, for which the self-cleavage turned out to be 0.221.
For the variant GUCCUCUUUCACGUGCGCGUGAAAGAGAGAAAUGAACCAGAGAAACACACGUUGUAGUAUAUUACCUGGUA, the self-cleavage came to 0.179.
Regarding GUCCUCUUUCACGUGCGCGUGAAAGAGAGAUGUGAACCAGAGAAACACACGUUUUGGUAUAUUACCUGGUA, the self-cleavage was 0.0633.
As to GUCCUCUUUCACGUGCGCGUGAAAGAGAGAUGUGAACCAGAGAAACACACGUUAUGGUAUAUUACCUGGUA, the self-cleavage was determined as 0.151.
Take GUCCUCUUUCACGUGCGCGUGAAAGAGAGAUGUGAACCAGAGAAACACACGUUGUGGUAUAUUAACUGGUA: the self-cleavage was found to be 0.127.
As for GUCCUCUUUCACGUGCGCGUGAAAGAGAGAUGUGAACCAGAGAAACACACGUUGUGGUAUAUUACCUGGUC, the self-cleavage stood at 0.227.
For the variant GUCCUCUUUCACGUGCGCGUGAAAGAGAGAUGUGAACCAGAGAAACACACGUUGUGGUAUAUUACCUGGUG, the self-cleavage worked out at 0.226.
As to GUCCUCUUUCACGUGCGCGUGAAAGAGAGAUGUGAACCAGAGAAACACACGUUGUGGUAUAUUACCUGGUU, the self-cleavage was found to be 0.172.
With GUCCUCUUUCACGUGCGCGUGAAAGAGAGAAAUGAACCAGAGAAACACACGUUGUGGUACAUUACCUGGUA the figure was 0.256; with GUCCUCUUUCACGUGCGCGUGAAAGAGAGAAAUGAACCAGAGAAACACACGUUGUGGUAGAUUACCUGGUA, 0.197; with GUCCUCUUUCACGUGCGCGUGAAAGAGAGAAAUGAACCAGAGAAACACACGUUGUGGUAUCUUACCUGGUA, 0.0657.
With GUCCUCUUUCACGUGCGCGUGAAAGAGAGAAAUGAACCAGAGAAACACACGUUGUGGUAUGUUACCUGGUA the figure was 0.153.
On to GUCCUCUUUCACGUGCGCGUGAAAGAGAGAUGUGAACCAGAGAAAAACACGUUGUGGUAUAUUACCUGGUA, for which the self-cleavage worked out at 0.236.
Under GUCCUCUUUCACGUGCGCGUGAAAGAGAGAUGUGAACCAGAGAAAUACACGUUGUGGUAUAUUACCUGGUA stands 0.205; under GUCCUCUUUCACGUGCGCGUGAAAGAGAGAUGUGAACCAGAGAAACACACGUUGAGGUAUAUUACCUGGUA, 0.0885.
With GUCCUCUUUCACGUGCGCGUGAAAGAGAGAUGUGAACCAGAGAAACACACGUUGUGGAAUAUUACCUGGUA the figure was 0.026; with GUCCUCUUUCACGUGCGCGUGAAAGAGAGAUGUGAACCAGAGAAACACACGUUGUGGUAUAUUACCUUGUA, 0.206; with GUCCUCUUUCACGUGCGCGUGAAAGAGAGAUGUGGACCAGAGAAACACACGUUGUGGUAUAUUACCUGGUA, 0.244.
With GUCCUCUUUCACGUGCGCGUGAAAGAGAGAAAUGAACCAGAGAAACACACGUUGUGGUAUAUUACCUGAUA the figure was 0.0516; with GUCCUCUUUCACGUGCGCGUGAAAGAGAGAUUUGAACCAGAGAAACACACGUUGUGGUAUAUUACCUGGUA, 0.125; with GUCCUCUUUCACGUGCGCGUGAAAGAGAGAUGUGAACCAGAGAAACACACGUUGUGGUAUAUUACCUGUUA, 0.105.
Consider GUCCUCUUUCACGUGCGCGUGAAAGAGAGAAAUGAACCAGAGAAACACACAUUGUGGUAUAUUACCUGGUA, for which the self-cleavage was 0.156.
Under GUCCUCUUUCACGUGCGCGUGAAAGAGAGAUGUGAACCAGAUAAACACACGUUGUGGUAUAUUACCUGGUA stands 0.0854.
Under GUCCUCUUUCACGUGCGCGUGAAAGAGAGAUGUGAACCAGAGAAACACACAUUGUGGUAUAUUACCUGGUA stands 0.
